The data set concerns the target LARP4B (UniProt Q92615 1-738). The data set is described as follows: EMSA. Background: In EMSA bound probe runs differently from free probe, usually more slowly.

Sequence of LARP4B (Q92615 whole entry): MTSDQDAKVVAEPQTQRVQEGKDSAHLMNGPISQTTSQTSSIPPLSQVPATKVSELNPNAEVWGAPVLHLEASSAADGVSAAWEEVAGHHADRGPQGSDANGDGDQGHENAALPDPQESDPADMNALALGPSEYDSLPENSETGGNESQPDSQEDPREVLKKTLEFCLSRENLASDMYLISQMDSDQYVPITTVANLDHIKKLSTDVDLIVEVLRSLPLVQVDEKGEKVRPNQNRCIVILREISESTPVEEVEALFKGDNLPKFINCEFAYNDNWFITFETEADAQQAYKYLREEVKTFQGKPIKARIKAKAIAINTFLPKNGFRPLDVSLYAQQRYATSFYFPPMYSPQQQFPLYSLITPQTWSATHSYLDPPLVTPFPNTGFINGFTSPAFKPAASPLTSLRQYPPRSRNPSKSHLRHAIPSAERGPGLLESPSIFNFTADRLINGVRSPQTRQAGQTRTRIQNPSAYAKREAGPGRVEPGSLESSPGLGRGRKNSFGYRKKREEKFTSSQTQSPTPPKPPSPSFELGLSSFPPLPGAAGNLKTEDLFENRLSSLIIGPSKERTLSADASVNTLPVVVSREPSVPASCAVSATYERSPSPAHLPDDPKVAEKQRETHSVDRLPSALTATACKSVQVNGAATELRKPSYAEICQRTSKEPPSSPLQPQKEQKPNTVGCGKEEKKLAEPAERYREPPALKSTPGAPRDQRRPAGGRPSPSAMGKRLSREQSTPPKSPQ

B1: CKB del (ssRNA)
RNA: GUAGAGACUUCCGUCACGCUUGGUAGAGGA
For B1, the binding result was “no binding”.

B2: CKB (ssRNA)
RNA: GUAGAGACUUCCGUCACGCUUGGUAGAGUUUAUUUUUUUGA
The term Kd denotes the free concentration of one partner at which half of the binding sites on the other are occupied at equilibrium, for simple one-to-one binding. Higher therefore signals lower affinity. Take B2: the Kd is ~0.2 µM.

The record behind these values is PMC4478348.
